Experimental data published in US20250066499A1 (SUNSHINE GUOJIAN PHARMACEUTICAL SHANGHAI, published 2025).

B1: 48A11-HuV33 (antibody, human IgG4, V domains shown)
VH: QVQLVQSGAEVKKPGASVKVSCKASGYTFTSYWMHWVRQAPGQGLEWIGEINPSIGRTNYNEKFKSRVTLTRDTSTSTAYMELSSLRSEDTAVYYCARRVYGTMDYWGQGTLVTVSS
VL: DIQMTQSPSSLSASVGDRVTITCKASQDINSYLSWFQQKPGKSPKLLIYRANIWVDGVPSRFSGSGSGQDYTFTISSLQPEDIATYYCLQYDELYTFGQGTKVEIK
notes: Humanized
B2: 56B10-HuV31 (antibody, human IgG4, V domains shown)
VH: QVQLQQSGAEVKKPGASVKVSCKASGYTFTRYYIYWVRQRPGQGLEWIGWIYPGNFNTKYNEKFKGRATLTADTSASTAYMELSSLTSEDTAVYYCARDVYDYAGFAYWGQGTLVTVSS
VL: DIQLTQSPSFLSASVGDRVTITCKASQGVATAVAWYQQKPGQSPKLLIYWASTRHTGVPDRFSGSGSGTEFTLTISSLQPEDFATYYCQQYSSYPWTFGQGTKVEIK
notes: Humanized

Key:
[1] = target: T1, human CD73-His protein (human, UniProt P21589 27-549); assay: SPR Biacore 8K, antibody captured on Protein A/G, CD73-his in flow, 1:1 model
T1 construct: Expressed in HEK-293F with a signal peptide that is not specified; In the ELISAs it was biotinylated with EZ-Link NHS-Biotin (CD73-biotin) and captured on streptavidin; in SPR and the enzyme assay it was used as CD73-His; also called CD73-his antigen; CD73-biotin
T1 sequence: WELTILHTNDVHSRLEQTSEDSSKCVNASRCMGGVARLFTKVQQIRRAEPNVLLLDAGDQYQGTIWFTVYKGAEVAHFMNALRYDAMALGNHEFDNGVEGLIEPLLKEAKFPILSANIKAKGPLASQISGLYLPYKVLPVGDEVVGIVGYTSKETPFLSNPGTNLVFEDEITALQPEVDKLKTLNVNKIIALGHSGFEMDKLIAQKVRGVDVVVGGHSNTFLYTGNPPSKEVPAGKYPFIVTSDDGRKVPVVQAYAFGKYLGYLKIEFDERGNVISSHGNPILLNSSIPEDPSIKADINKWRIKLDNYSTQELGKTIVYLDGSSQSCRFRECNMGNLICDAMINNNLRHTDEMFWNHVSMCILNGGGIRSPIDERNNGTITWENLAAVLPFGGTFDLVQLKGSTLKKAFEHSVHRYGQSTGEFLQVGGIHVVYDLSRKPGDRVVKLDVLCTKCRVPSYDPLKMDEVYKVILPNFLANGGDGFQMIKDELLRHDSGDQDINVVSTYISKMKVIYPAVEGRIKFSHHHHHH
Procedure: Antibodies to be tested were captured using a chip covalently coupled with Protein A/G, with the following operational parameters: antibody concentration of 2 μg/mL, contact time of 75 seconds, flow rate of 10 μL/min, and regeneration contact time of 30 seconds. The CD73-his antigen was diluted in HBS-EP pH 7.4 buffer, with the highest concentration being 100 nM, and diluted in a 2-fold gradient down to 0.78 nM. Duplicate wells and a 0 concentration point were set up. 6M guanidine hydrochloride solution was used as the regeneration buffer. Using the Biacore 8K, the samples were injected with the following parameters: binding time of 180 seconds, dissociation time of 900 seconds, flow rate of 30 μL/min, and regeneration contact time of 30 seconds. After the procedure was completed, the Biacore 8K Evaluation Software was used to analyze the data according to the “1:1 binding kinetics model,” yielding the binding kinetics parameters of each antibody to CD73.

[2] = target: T2, CD73 protein on the surface of tumor cells (human, UniProt P21589 27-549); assay: flow cytometry on A375 cells
T2 construct: whole, on cells; also called CD73 on H1975 cells; CD73 on MDA-MB-231 cells
T2 sequence (looked up): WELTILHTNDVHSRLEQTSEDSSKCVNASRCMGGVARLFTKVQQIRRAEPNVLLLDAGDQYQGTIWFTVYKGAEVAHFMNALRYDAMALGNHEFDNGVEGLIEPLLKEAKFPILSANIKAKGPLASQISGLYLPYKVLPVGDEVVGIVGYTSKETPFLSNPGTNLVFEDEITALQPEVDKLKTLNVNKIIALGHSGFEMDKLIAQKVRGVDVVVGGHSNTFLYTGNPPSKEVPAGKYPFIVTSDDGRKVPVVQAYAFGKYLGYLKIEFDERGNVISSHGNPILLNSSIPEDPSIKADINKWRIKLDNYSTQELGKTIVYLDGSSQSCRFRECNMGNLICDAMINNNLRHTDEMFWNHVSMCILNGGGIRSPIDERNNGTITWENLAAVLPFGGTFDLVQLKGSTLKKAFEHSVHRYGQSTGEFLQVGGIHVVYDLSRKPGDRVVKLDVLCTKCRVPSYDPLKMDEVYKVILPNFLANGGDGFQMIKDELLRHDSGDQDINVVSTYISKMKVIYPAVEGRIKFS
Procedure: (§1) MDA-MB-231 cells (triple-negative breast cancer), H292 cells (human lung cancer cells), and A375 cells (human malignant melanoma cells), all in their logarithmic growth phase, were collected respectively. The cells were washed once with RPMI-1640 basic medium and then adjusted to a cell concentration of 2.0×10⁶ cells/mL in RPMI-1640 basic medium containing 1% BSA (antibody diluent). The antibodies to be tested were diluted in a 3-fold gradient using the antibody diluent, and 100 μL of each concentration of the test antibodies was mixed with 100 μL of cells in a 96-well cell culture plate and incubated at 4° C. for 1 hour (the maximum working concentration of the test antibodies was 500 nM, with 1×10⁵ target cells per well). The cells were washed twice with PBS to remove unbound test antibodies. Then, the cells were mixed with 200 μL of 5 μg/mL FITC-labeled goat anti-human IgG-Fc secondary antibody and incubated at 4° C. for 30 minutes. The cells were washed twice again with PBS to remove unbound secondary antibodies, and finally, the cells were resuspended in 200 μL of PBS. The binding affinity of the test antibodies to the cells was determined using a flow cytometer.

[3] = target: T1, human CD73-His protein; assay: cell-based or functional assay
[4] = target: T2, CD73 protein on the surface of tumor …; assay: cell-based or functional assay
[5] = target: T2, CD73 protein on the surface of tumor …; assay: flow cytometry on H292 cells
Procedure: as §1

Row | Binder | Kd [1] [nM] | koff [1] [s⁻¹] | kon [1] [M⁻¹ s⁻¹] | EC50 [2] [nM] | IC50 (nM), inhibition of enzyme activity of soluble CD73-His (AMP/ATP, Cell Titer-Glo) [3] [nM] | IC50, inhibition of CD73 enzyme activity on A375 cells [4] [nM] | IC50, inhibition of CD73 enzyme activity on H292 cells [4] [nM] | IC50, inhibition of CD73 enzyme activity on MDA-MB-231 cells [4] [nM] | EC50 [5] [nM]
1 | B1 | 2.26 | 0.000381 | 168000 | 0.789 | 4.27 | 1.48 | 0.859 | 0.566 | 2.31
2 | B2 | 1.89 | 0.000376 | 199000 | 1.27 | 3.66 | 1.34 | 0.818 | 0.61 | 2.55
